Reference: US20190010203A1 (ADEPTHERA, published 2019)
Non-standard residues stand in square brackets, D forms with d. No end group written: not given here. *: point of attachment. Palmitoyl = CCCCCCCCCCCCCCCC(=O)*; AEEEA = NCCOCCOCCOCC(=O)O

B1: SEQ ID NO: 94 (peptide)
peptide: miniPEG-K(Palmitoyl)GCRFGTCTVQKLAHQIYQFTDKDKDNVDPSSPHSY-NH2
modifications: cysteine pairing not given here
B2: SEQ ID NO: 70 (peptide)
peptide: miniPEG-K(Palmitoyl)TKKTLRTGCRFGTCTVQKLAHQIYQFTDKDKDNVAPRSKISPQGY-NH2
modifications: ends and bridges not checked
B3: SEQ ID NO: 30 (peptide)
peptide: Palmitoyl-KGCRFGTCTVQKLAHQIYQFTDKDKDNSAPVDPSSPHSY-NH2
modifications: ends and bridges not checked
B4: SEQ ID NO: 41 (peptide)
peptide: Ac-TK(Palmitoyl)KTLRTGCRFGTCTVQKLAHQIYQFTDKDKDNVAPVDPSSPHSY-NH2
modifications: ends and bridges not checked
B5: SEQ ID NO: 34 (peptide)
peptide: Palmitoyl-KGCRFGTCTVQKLAHQIYQFTDKDKDNVAPVDPSSPHSY-NH2
modifications: ends and bridges not checked
B6: SEQ ID NO: 31 (peptide)
peptide: Palmitoyl-KGCRFGTCTVQKLAHQIYQFTPAGRQDSAPVDPSSPHSY-NH2
modifications: ends and bridges not checked
B7: SEQ ID NO: 93 (peptide)
peptide: Ac-KGCRFGTCTVQKLAHQIYQFTDKDSAPVDPSSPHSY-NH2
modifications: ends and bridges not checked
B8: SEQ ID NO: 35 (peptide)
peptide: Palmitoyl-KGCRFGTCTVQKLAHQIYQFTDKDKQDSAPVDPSSPHSY-NH2
modifications: ends and bridges not checked
B9: SEQ ID NO: 36 (peptide)
peptide: Palmitoyl-KGCRFGTCTVQKLAHQIYQFTDKGRQDSAPVDPSSPHSY-NH2
modifications: ends and bridges not checked
B10: SEQ ID NO: 39 (peptide)
peptide: Ac-TK(Palmitoyl)KTLRTGCRFGTCTVQKLAHQIYQFTDKDKDNSAPVDPSSPHSY-NH2
modifications: ends and bridges not checked
B11: SEQ ID NO: 40 (peptide)
peptide: Palmitoyl-KTKKTLRTGCRFGTCTVQKLAHQIYQFTDKDKDNVAPVDPSSPHSY-NH2
modifications: not fully specified; printed as Pal-KTKKTLRTGCRFGTCTVQKLAHQIYQFTDKDKDNVAPVDPSSPHSY-NH2; ends and bridges not checked
B12: SEQ ID NO: 59 (peptide)
peptide: Ac-KGCRFGTCTVQKLAHQIYQFTDKDKDNSAPVDPSSPHSY-NH2
modifications: ends and bridges not checked
B13: SEQ ID NO: 50 (peptide)
peptide: miniPEG-K(Palmitoyl)GCRFGTCTVQKLAHQIYQFTDKDKDNVAPVDPSSPHSY-NH2
modifications: cysteine pairing not given here
B14: SEQ ID NO: 38 (peptide)
peptide: Palmitoyl-KTKKTLRTGCRFGTCTVQKLAHQIYQFTDKDKDNSAPVDPSSPHSY-NH2
modifications: not fully specified; printed as Pal-KTKKTLRTGCRFGTCTVQKLAHQIYQFTDKDKDNSAPVDPSSPHSY-NH2; ends and bridges not checked
B15: SEQ ID NO: 60 (peptide)
peptide: Ac-KGCRFGTCTVQKLAHQIYQFTDKDKDNVAPVDPSSPHSY-NH2
modifications: ends and bridges not checked
B16: SEQ ID NO: 45 (peptide)
peptide: Palmitoyl-GCRFGTCTVQKLAHQIYQFTDKDKDNSAPVDPSSPHSY-NH2
modifications: ends and bridges not checked
B17: SEQ ID NO: 57 (peptide)
peptide: Ac-VGCRFGTCTVQKLAHQIYQFTPAGRQDSAPVDPSSPHSY-NH2
modifications: ends and bridges not checked
B18: SEQ ID NO: 33 (peptide)
peptide: Ac-K(Palmitoyl)GCRFGTCTVQKLAHQIYQFTPAGRQDSAPVDPSSPHSY-NH2
modifications: ends and bridges not checked
B19: SEQ ID NO: 73 (peptide)
peptide: KGCRFGTCTVQKLAHQIYQFTDKDKDNVAPRSKISPQGY
modifications: N-terminal palmitoyl (Pal); palmitoyl on Lys 1 side chain, K(Pal); C-terminal amide
B20: human ADM, SEQ ID NO: 53 (peptide)
peptide: Ac-FGCRFGTCTVQKLAHQIYQFTDKDKDNVAPRSKISPQGY-NH2
modifications: cysteine pairing not given here
B21: SEQ ID NO: 110 (peptide)
peptide: Palmitoyl-KGCRFGTCTVQKLAHQIYQFTDKDAPVDPSSPHSY-NH2
modifications: ends and bridges not checked
B22: SEQ ID NO: 44 (peptide)
peptide: Palmitoyl-KCRFGTCTVQKLAHQIYQFTDKDKDNSAPVDPSSPHSY-NH2
modifications: ends and bridges not checked
B23: SEQ ID NO: 47 (peptide)
peptide: miniPEG-K(Palmitoyl)GCRFGTCTVQKLAHQIYQFTDKDKSAPVDPSSPHSY-NH2
modifications: ends and bridges not checked
B24: SEQ ID NO: 56 (peptide)
peptide: Ac-VGCRFGTCTVQKLAHQIYQFTDKDKDNSAPVDPSSPHSY-NH2
modifications: ends and bridges not checked
B25: SEQ ID NO: 46 (peptide)
peptide: [AEEEA]K(Palmitoyl)GCRFGTCTVQKLAHQIYQFTDKDKDSAPVDPSSPHSY-NH2
modifications: ends and bridges not checked
B26: SEQ ID NO: 43 (peptide)
peptide: [AEEEA]K(Palmitoyl)CRFGTCTVQKLAHQIYQFTDKDKDNSAPVDPSSPHSY-NH2
modifications: ends and bridges not checked
B27: SEQ ID NO: 42 (peptide)
peptide: miniPEG-TK(Palmitoyl)KTLRTGCRFGTCTVQKLAHQIYQFTDKDKDNVAPVDPSSPHSY-NH2
modifications: cysteine pairing not given here
B28: SEQ ID NO: 51 (peptide)
peptide: [AEEEA]K(Palmitoyl)GCRFGTCTVQKLAHQIYQFTDKDKQDSAPVDPSSPHSY-NH2
modifications: ends and bridges not checked
B29: SEQ ID NO: 62 (peptide)
peptide: [AEEEA]K(Palmitoyl)GCRFGTCTVQKLAHLWQLMGPAGRQDSAPVDPSSPHSY-NH2
modifications: ends and bridges not checked
B30: SEQ ID NO: 65 (peptide)
peptide: Ac-K(Palmitoyl)GCRFGTCTVQKLAHQIYQFTDKDKDNVAPRSKSSPHSY-NH2
modifications: ends and bridges not checked

target: CLR/RAMP2 receptor (UniProt Q16602 23-461; O60895 43-175, limits assumed); assay: cell-based or functional assay
Sequence (Q16602 23-461 limits assumed, chain 1 of 2): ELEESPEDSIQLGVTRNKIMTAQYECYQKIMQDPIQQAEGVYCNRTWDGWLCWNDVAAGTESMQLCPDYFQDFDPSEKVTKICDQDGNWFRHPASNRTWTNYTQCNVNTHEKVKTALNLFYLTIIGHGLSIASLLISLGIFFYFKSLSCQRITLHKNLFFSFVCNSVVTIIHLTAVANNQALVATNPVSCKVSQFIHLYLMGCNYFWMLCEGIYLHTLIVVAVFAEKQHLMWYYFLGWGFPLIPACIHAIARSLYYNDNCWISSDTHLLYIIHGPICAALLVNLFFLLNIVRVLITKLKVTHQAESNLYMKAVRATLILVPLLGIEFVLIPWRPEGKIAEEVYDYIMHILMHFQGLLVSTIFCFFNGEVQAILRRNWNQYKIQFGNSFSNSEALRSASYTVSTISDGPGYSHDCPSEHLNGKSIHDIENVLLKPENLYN
Sequence (O60895 43-175 limits assumed, chain 2 of 2): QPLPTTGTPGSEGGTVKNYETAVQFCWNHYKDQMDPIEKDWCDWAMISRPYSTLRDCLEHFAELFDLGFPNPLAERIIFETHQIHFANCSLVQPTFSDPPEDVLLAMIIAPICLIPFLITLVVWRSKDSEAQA

| Binder | Max Activity % of positive control, CLR/RAMP2 arrestin assay | EC50 (nM), CLR/RAMP2 arrestin assay |
| --- | --- | --- |
| B1 | 82 % of positive control | – |
| B2 | 68 % of positive control | – |
| B3 | – | 0.6 nM |
| B4 | – | 0.9 nM |
| B5 | – | 0.7 nM |
| B6 | – | 0.9 nM |
| B7 | – | 17 nM |
| B8 | – | 1 nM |
| B9 | – | 0.9 nM |
| B10 | – | 0.5 nM |
| B11 | – | 1 nM |
| B12 | – | 18 nM |
| B13 | 87 % of positive control | – |
| B14 | – | 0.7 nM |
| B15 | – | 3 nM |
| B16 | – | 0.3 nM |
| B17 | – | 149 nM |
| B18 | – | 0.4 nM |
| B19 | – | 49 nM |
| B20 | 102 % of positive control | – |
| B21 | – | 6.4 nM |
| B22 | – | 0.2 nM |
| B23 | 64 % of positive control | 0.4 nM |
| B24 | – | 17 nM |
| B25 | 104 % of positive control | 0.5 nM |
| B26 | 30 % of positive control | 0.2 nM |
| B27 | – | 0.2 nM |
| B28 | – | 0.3 nM |

target: CLR/RAMP1 receptor (UniProt Q16602 23-461; O60894 27-148, limits assumed); assay: cell-based or functional assay
Sequence (Q16602 23-461 limits assumed, chain 1 of 2): as the sequence (Q16602 23-461 limits assumed, chain 1 of 2) above
Sequence (O60894 27-148 limits assumed, chain 2 of 2): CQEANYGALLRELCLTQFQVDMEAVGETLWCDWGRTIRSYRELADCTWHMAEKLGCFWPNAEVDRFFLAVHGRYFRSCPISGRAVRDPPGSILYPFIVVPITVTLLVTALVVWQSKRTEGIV

| Binder | Max Activity % of positive control, CLR/RAMP1 cAMP assay | EC50 (nM), CLR/RAMP1 cAMP assay |
| --- | --- | --- |
| B1 | 67 % of positive control | – |
| B2 | 69 % of positive control | – |
| B3 | – | 0.4 nM |
| B4 | – | 0.4 nM |
| B5 | – | 0.2 nM |
| B6 | – | 0.8 nM |
| B7 | – | 771 nM |
| B8 | – | 0.8 nM |
| B9 | – | 0.6 nM |
| B10 | – | 0.2 nM |
| B11 | – | 2 nM |
| B12 | – | 31 nM |
| B13 | 65 % of positive control | – |
| B14 | – | 0.5 nM |
| B15 | – | 16 nM |
| B16 | – | 0.1 nM |
| B17 | – | 909 nM |
| B18 | – | 0.3 nM |
| B19 | – | 34 nM |
| B29 | 2 % of positive control | – |
| B20 | 69 % of positive control | – |
| B21 | – | 43 nM |
| B22 | – | 0.1 nM |
| B23 | 85 % of positive control | – |
| B24 | – | 224 nM |
| B26 | 39 % of positive control | 0.5 nM |
| B30 | – | 234 nM |
